Assays:
[1] = biological target: T1, PduO C-terminal domain (PduOC) (Salmonella enterica, UniProt A0A0F6B395); assay: crystal structure ([…] Å) and ITC; UV/Vis titration; assay type: binding
T1 construct: C-terminal domain PduOC, 147 residues, His-tag-free; octamer with 4 hemes

[2] = biological target: PduOC-His18Ala (H18A) mutant (Salmonella enterica subsp. enterica serovar Typhimurium); assay: SEC-MALS; Superdex 200 increase 10/300 GL in 100 mM Tris-HCl pH 8, 150 mM NaCl, with multi-angle static light scattering and refractive index detectors; wild type as PduOC:heme, H18A without heme
[3] = biological target: the molecule itself; assay: SEC; gel filtration of the PduOC apoprotein (heme extracted); data not shown
[4] = biological target: the molecule itself; assay: SEC-MALS; Superdex 200 increase 10/300 GL in 100 mM Tris-HCl pH 8, 150 mM NaCl, with multi-angle static light scattering and refractive index detectors; wild type as PduOC:heme, H18A without heme

## C=CC1=C(C)C2=Cc3c(C=C)c(C)c4[n]3[Fe][n]3c(c(C)c(CCC(=O)O)c3=CC3=NC(=C4)C(C)=C3CCC(=O)O)=CC1=N2 [heme B]
[1]
  Kd: 160 nM

## PduOC-His18Ala (H18A) mutant (domain or fragment)
[2]
  stoichiometry N: 2

B1: C-terminal domain of the Salmonella enterica PduO protein (PduOC) (domain or fragment)
chain: KETTPVALSFHDLHQLTRAAVERAQQLQVPVVVSIVDAHGTETVTWRMPDALLVSSELAPKKAWTAVAMKTATHELSDVVQPGAALYGLESHLQGKVVTFGGGYALWRDGILIGGLGISGGSVEQDMDIAQTAIAAINVGTHQ
notes: PduO, ATP:Cob(I)alamin adenosyltransferase of S. enterica subsp. enterica serovar Typhimurium; C-terminal domain (PduOC); the His-tag-free monomer has 147 residues; the N-terminal domain (PduON) has 197 residues; excess heme B added to the lysate for crystallography; Residues left by the pETM11 vector after TEV cleavage are probably counted in the 147 residues (surmise); also called PduOC:heme; …
[3]
  stoichiometry N: 2
[4]
  stoichiometry N: 8

— PMC4923194, “The Crystal Structure of the C-Terminal Domain of the Salmonella enterica PduO Protein: An Old Fold with a New Heme-Binding Mode” (Frontiers in Microbiology, 2016)
